The results in this text go back to patent US20190276523A1.

Assay [1] deals with F43 scFv-Fc (human) [IgG part: P01857]. Put plainly: Octet-Red biolayer interferometry, SA sensor tips, 2:1 model; reference pair HuG6.3 and D80 scFv-Fc.
In assay [2] the target is 11A scFv-Fc-CD28-gp41 expressed on 293T cells (human; HIV-1) [IgG part: P01857]. Put plainly: flow cytometry, 293T-11A cells stained with APC-conjugated MuG6.
In assay [3] the target is F43 scFv-Fc-CD28-gp41 expressed on 293T cells (human; HIV-1) [IgG part: P01857]. Description: cell-based or functional assay.
For assay [4], the target named is D80 scFv-Fc-CD28-gp41 expressed on 293T cells (human; HIV-1) [IgG part: P01857]. Description: cell-based or functional assay.
Assay [5] has as its target F70 scFv-Fc-CD28-gp41 expressed on 293T cells (human; HIV-1) [IgG part: P01857]. Put plainly: cell-based or functional assay.
The target of assay [6] is D80 scFv-Fc-CD28-gp41 expressed on 293T cells (human; HIV-1) [IgG part: P01857]. Put plainly: flow cytometry, 293T-D80 cells stained with APC-conjugated MuG6.
Assay [7] deals with F70 scFv-Fc-CD28-gp41 expressed on 293T cells (human; HIV-1) [IgG part: P01857]. Put plainly: flow cytometry, 293T-F70 cells stained with APC-conjugated MuG6.
The target in assay [8] is F43 scFv-Fc-CD28-gp41 expressed on 293T cells (human; HIV-1) [IgG part: P01857]. Put plainly: flow cytometry, 293T-F43 cells stained with APC-conjugated MuG6.

B1: HuG6.3 (format not stated, Octet-Red assay) (antibody, V domains shown)
VH: QVQLVQSGAEVVKPGASVKVSCKASGYTFTSYWMHWVKQAPGQGLEWIGAVSPGNSDTSYNEKFKGKATLTVDKSASTAYMELSSLRSEDTAVYYCTRSRYGNNALDYWGQGTLVTVS
VL: DIQLTQSPSSLSASVGDRVTITCRASQGISSNIVWLQQKPGKAPKGLIYHGTNLESGVPSRFSGSGSGTDYTLTISSLEPEDFATYYCVQYSQFPPTFGQGTKLEIK
With B1, in assay [1], the fold increase in binding affinity compared to D80 scFv-Fc is 50 fold, the fold slower Koff compared to D80 scFv-Fc stood at 600 fold and the fold slower Kon compared to D80 scFv-Fc is 3.5 fold.

B2: MuG6 antibody (format in the CDC and ADCC assays not stated) (antibody, V domains shown)
VH: QVQLQQSGTVLARPGASVKMSCKASGYTFTSYWMHWVKQRPGQGLEWIGAVSPGNSDTSYNQKFKGKATLTAVTSTSTAYMEFSSLTNEDSAVYYCTRSRYGNNALDYWGQGTTVTVSS
VL: DIELTQSPSSMSVSLGDTVNITCRASQGISSNIVWLQQKPGKSFKGLIYHGTNLEDGVPSRFSGSGSGADYSLTISSLESEDFADYYCVQYSQFPPTFGSGTKLELK
modifications: APC-conjugated in the flow cytometry of FIG.11C
As for B2, the % of cells in Q3 (ZsGreen-, G6-id+) stood at 0.097% in assay [2], 5.28% in assay [6], 6.15% in assay [7] and 9.11% in assay [8]. For the same molecule, the CDC, percent of target cells killed (LDH release, rabbit serum) (% of target cells killed) in assay [3], in assay [4] and in assay [5] was 20 each time. The results for the % of cells in Q2 (ZsGreen+, G6-id+) in assay [6], in assay [7] and in assay [8] were 43.3%, 44% and 41.3%, respectively.
